Substitutions are numbered along the chain they refer to.
B1: 抗PAD4抗体Lib2(4R)-1-47 (antibody, V domains shown)
VH: EVQLLESGGGLVQPGGSLRLSCAASGFTFSTYAMGWVRQAPGKGLEFVAAIRNDGSWTGYGTPYKTRFTISRDNSKNTLYLQMNSLRAEDTAVYYCAKYTGSSGGSIGAWGQGTLVTVSS
VL: SYELTQPPSVSVSPGQTARITCSGGNRNYYYGWYQQKPGQAPVTVIYANDKRPSGIPERFSGSNSGSTTTLTISGVQAEDEADYYCGTATTGKYVFGGGTKLTVLG
B2: 抗PAD4抗体Lib1(6R)-1-39 (antibody, V domains shown)
VH: B1 VH with Y60T, G61S, T62V, P63N, Y64A
VL: B1 VL
B3: 抗PAD4抗体Lib1(6R)-2-37 (antibody, V domains shown)
VH: B1 VH with Y60I, T62Y, P63N, Y64Q, T66S, A97G
VL: B1 VL with T90L
B4: 抗PAD4抗体3-1-39 (antibody, human IgG1, lambda, V domains shown)
VH: B1 VH with Y60T, G61S, T62V, P63N, Y64A, N84S
VL: B1 VL
B5: 抗PAD4抗体4-2-25 (antibody, human IgG1, lambda, V domains shown)
VH: B1 VH with G61P, T62P, Y64L, T66G, N84S
VL: B1 VL with T90Y
B6: 抗PAD4抗体3-2-37 (antibody, human IgG1, lambda, V domains shown)
VH: B1 VH with Y60I, T62Y, P63N, Y64Q, T66S, N84S, A97G
VL: B1 VL with T90L
B7: ヒト化抗PAD4抗体G8ss (antibody, human IgG1, lambda, V domains shown)
VH: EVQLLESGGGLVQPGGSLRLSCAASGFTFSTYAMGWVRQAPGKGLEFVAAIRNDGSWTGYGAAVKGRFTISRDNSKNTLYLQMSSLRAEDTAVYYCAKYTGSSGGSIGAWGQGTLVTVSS
VL: B1 VL with T90D
B8: ヒト化抗PAD4抗体G8 (antibody, human IgG1, lambda, V domains shown)
VH: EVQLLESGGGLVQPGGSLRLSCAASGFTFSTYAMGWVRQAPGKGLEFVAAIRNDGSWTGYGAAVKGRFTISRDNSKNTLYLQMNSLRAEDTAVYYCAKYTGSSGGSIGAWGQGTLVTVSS
VL: B1 VL with T90D
B9: 抗PAD4抗体Lib2(5R)-2-25 (antibody, V domains shown)
VH: B1 VH with G61P, T62P, Y64L, T66G
VL: B1 VL with T90Y
B10: 抗PAD4抗体2-1-47 (antibody, human IgG1, lambda, V domains shown)
VH: B1 VH with N84S
VL: B1 VL

molecular target: ヒトPAD4 (human, UniProt Q9UM07 1-663, limits assumed); experiment: cell-based or functional assay
Sequence (Q9UM07 whole entry): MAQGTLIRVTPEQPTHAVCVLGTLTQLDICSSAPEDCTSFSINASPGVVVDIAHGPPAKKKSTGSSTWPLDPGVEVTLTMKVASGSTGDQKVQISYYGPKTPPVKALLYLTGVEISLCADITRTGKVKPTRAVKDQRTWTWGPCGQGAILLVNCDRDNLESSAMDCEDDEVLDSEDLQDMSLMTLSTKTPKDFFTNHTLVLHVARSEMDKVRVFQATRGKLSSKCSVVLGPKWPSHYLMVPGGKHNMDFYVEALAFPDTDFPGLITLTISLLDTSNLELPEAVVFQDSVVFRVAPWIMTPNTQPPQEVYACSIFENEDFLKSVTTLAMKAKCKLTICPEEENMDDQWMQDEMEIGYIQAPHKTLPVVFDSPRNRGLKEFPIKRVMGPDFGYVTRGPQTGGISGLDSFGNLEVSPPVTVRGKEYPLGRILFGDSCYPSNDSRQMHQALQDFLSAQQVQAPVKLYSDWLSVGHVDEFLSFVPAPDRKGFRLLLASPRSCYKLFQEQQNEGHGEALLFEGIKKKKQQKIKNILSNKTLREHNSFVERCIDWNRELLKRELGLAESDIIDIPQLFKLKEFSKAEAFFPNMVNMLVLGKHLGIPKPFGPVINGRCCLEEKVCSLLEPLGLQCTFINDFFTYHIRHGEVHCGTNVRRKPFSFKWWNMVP

B1 and B2 are within 1.5-fold of each other in “ヒトPAD4酵素阻害活性 IC50 (BAEE citrullination, colorimetric)” value (from here on “ヒトPAD4酵素阻害活性 IC50”): 9.6 nM for the first, 8.7 nM for the second.

First: B3
Second: B4
The “ヒトPAD4酵素阻害活性 IC50” value of the first is 1.5-fold higher: 13.4 nM for the first, 8.8 nM for the second.

Compared with B5, B6 is 2-fold higher in “ヒトPAD4酵素阻害活性 IC50” value: 7.6 nM for the first, 15.3 nM for the second.

B7 and B8 are within 1.5-fold of each other in “ヒトPAD4酵素阻害活性 IC50” value: 20.3 nM for the first, 21.6 nM for the second.

B9 and B10 are within 1.5-fold of each other in “ヒトPAD4酵素阻害活性 IC50” value: 8.3 nM for the first, 12.2 nM for the second.
